The text below walks through data of patent publication US20100021480A1, “BIOACTIVE SUBSTANCE-BLOOD PROTEIN CONJUGATE AND STABILIZATION OF A BIOACTIVE SUBSTANCE USING THE SAME” (priority 2005, published 2010).

Experiment [1] has as its target activated albumin 21 (human serum albumin whose Cys34 free thiol is substituted by a disulfanyl group with aldrithiol) (human) (UniProt P02768). As to the kind of experiment: albumin binding test: 50 µl of 1 mM Compound 15 with 40 µl of 1 mM activated albumin in 100 µl PBS, 37 C 30 min, methanol precipitation, HPLC of supernatant (unbound peptide).
Experiment [2] shares this target. As to the kind of experiment: albumin binding test: 40 µl of 1 mM Compound 15 with 50 µl of 1 mM activated albumin in 100 µl PBS, 37 C 30 min, methanol precipitation, HPLC of supernatant (unbound peptide).
For experiment [3] the target is unchanged. The experiment can be described thus: albumin binding test: 20 µl of 1 mM Compound 15 with 50 µl of 1 mM activated albumin, HPLC of supernatant (unbound peptide).
For experiment [4] the target is unchanged. The experiment can be described thus: albumin binding test: 50 µl of 1 mM Compound 15 with 50 µl of 1 mM activated albumin, HPLC of supernatant (unbound peptide).
For experiment [5] the target is unchanged. As to the kind of experiment: albumin binding test: 20 µl of 1 mM Compound 15 with 50 µl of 1 mM activated albumin in 100 µl PBS, 37 C 30 min, methanol precipitation, HPLC of supernatant (unbound peptide).
The target is the same in experiment [6]. The experiment can be described thus: albumin binding test: 40 µl of 1 mM Compound 15 with 50 µl of 1 mM activated albumin, HPLC of supernatant (unbound peptide).
The target is the same in experiment [7]. As to the kind of experiment: albumin binding test: 50 µl of 1 mM Compound 15 with 40 µl of 1 mM activated albumin, HPLC of supernatant (unbound peptide).
For experiment [8] the target is unchanged. The experiment can be described thus: albumin binding test: 50 µl of 1 mM Compound 15 with 50 µl of 1 mM activated albumin in 100 µl, 37 C 30 min, methanol precipitation, HPLC of supernatant (unbound peptide).

activated albumin 21 (human serum albumin whose Cys34 free thiol is substituted by a disulfanyl group with aldrithiol) (human), sequence (P02768 25-609 limits assumed): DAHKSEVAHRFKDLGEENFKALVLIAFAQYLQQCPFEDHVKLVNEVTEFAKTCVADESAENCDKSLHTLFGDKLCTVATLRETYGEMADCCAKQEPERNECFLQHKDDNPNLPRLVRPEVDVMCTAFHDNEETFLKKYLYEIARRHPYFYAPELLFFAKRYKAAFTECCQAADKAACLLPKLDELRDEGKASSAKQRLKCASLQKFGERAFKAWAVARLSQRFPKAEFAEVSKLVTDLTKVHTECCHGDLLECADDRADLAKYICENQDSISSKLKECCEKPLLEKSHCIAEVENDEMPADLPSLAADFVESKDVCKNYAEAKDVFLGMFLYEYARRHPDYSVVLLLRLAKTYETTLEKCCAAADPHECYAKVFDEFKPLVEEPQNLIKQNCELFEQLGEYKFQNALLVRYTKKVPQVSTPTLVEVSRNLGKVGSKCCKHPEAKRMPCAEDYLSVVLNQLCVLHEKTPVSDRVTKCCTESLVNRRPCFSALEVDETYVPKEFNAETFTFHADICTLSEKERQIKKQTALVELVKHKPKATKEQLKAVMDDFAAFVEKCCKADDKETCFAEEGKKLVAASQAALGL

Take “Compound 15: Leuprolide-GSG-Lys-[ε-AEEA-CO-(CH2)2-SH]-NH2.2TFA (peptide)”: the PA 20.6 min (HPLC peak area of Compound 15 left in the supernatant) in experiment [1] amounted to 1.79e+07 peak area; in experiment [2], 9.8e+06 peak area; in experiment [5], 1.3e+06 peak area; in experiment [8], 1.47e+07 peak area. Further, the PA 20.6 min/4.4M (peak area against that of 10 µl Compound 15 alone) in experiment [3] turned out to be 0.3; in experiment [4] it was 3.3; in experiment [6], 2.2; in experiment [7], 4.
